This experiment addresses T1, human LgR5 ECD (amino acids 22-557 fused to His-Fc expressed in a baculovirus system, or amino acids 22-558 … (human, UniProt O75473 22-557)).
T1 construct: not shown: C-terminal His-tagged Fc
T1 sequence: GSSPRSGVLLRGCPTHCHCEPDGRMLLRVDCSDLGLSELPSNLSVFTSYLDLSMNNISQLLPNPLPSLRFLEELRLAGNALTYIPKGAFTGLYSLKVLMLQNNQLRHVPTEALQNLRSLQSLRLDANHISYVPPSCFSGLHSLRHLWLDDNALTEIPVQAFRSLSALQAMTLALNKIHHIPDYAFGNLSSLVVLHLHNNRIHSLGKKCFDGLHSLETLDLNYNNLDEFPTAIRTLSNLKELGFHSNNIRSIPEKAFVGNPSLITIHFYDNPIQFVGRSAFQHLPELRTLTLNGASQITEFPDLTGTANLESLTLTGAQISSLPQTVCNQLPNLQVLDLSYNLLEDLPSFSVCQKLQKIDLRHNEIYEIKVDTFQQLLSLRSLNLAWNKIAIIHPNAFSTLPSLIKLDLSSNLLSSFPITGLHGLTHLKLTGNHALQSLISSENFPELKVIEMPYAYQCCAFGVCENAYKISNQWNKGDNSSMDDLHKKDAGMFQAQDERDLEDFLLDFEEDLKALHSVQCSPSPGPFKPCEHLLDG
Nature of the experiment: BIAcore-3000 SPR, IgG captured on goat anti-human Fc, human LgR5 ECD-Fc injected, 25 C, 1:1 Langmuir model. The procedure:
The affinity of each 8E11 IgG variant for human LgR5 was determined by surface plasmon resonance using a BIAcore™-3000. BIAcore™ research grade CMS chips were activated with 1-ethyl-3-(3-dimethylaminopropyl) carbodiimide (EDC) and N-hydroxysuccinimide (NHS) reagents according to the supplier's instructions. Goat anti-human Fc IgGs were coupled to the chips to achieve approximately 10,000 response units (RU) in each flow cell. Unreacted coupling groups were blocked with 1M ethanolamine. For kinetics measurements, anti-LGR5 antibodies were captured to achieve approximately 300 RU. Two-fold serial dilutions of human LgR5ECD (amino acids 22-557 fused to His-Fc expressed in a baculovirus system, or amino acids 22-558 fused to Fc expressed from CHO cells; 125 nM to 0.49 nM) were injected in HBS-P buffer (0.01M HEPES pH7.4, 0.15M NaCl, 0.005% surfactant P20) at 25° C. with a flow rate of 30 μl/min. Association rates (kₒₙ) and dissociation rates (koff) were calculated using a 1:1 Langmuir binding model (BIAcore™ Evaluation Software version 3.2). The equilibrium dissociation constant (Kd) was calculated as the ratio koff/kₒₙ.

Here are results for seven molecules from US20130336885A1 (Genentech, published 2013).

B1: h8E11.v3 (antibody, V domains shown)
VH: EVQLVQSGAEVKKPGASVKVSCKASGYTFSAYWIEWVRQAPGQGLEWIGEILPGSDSTDYNEKFKVRVTITSDTSTSTVYLELSSLRSEDTAVYYCARGGHYGSLDYWGQGTLVTVSS
VL: DIVMTQSPDSLAVSLGERATINCRASESVDNYGNSFMHWYQQKPGQPPKLLIYLASNLESGVPDRFSGSGSRTDFTLTISSLQAEDVAVYYCQQNYEDPFTFGQGTKVEIKR
notes: VH CDR graft + 71S/78V; also called hu8E11.v3
Take B1: the dissociation constant Kd (as a rule, the concentration at which binding is half-saturated) was 4.73 nM; the koff (usually a measure of how fast the partners let go of each other) is 0.00053 s⁻¹; the on-rate constant (kon) – broadly, the rate constant with which the complex forms – came to 112000 M⁻¹ s⁻¹.

B2: h8E11.v7 (antibody, V domains shown)
VH: EVQLVQSGAEVKKPGASVKVSCKASGYTFSAYWIEWVRQAPGQGLEWIGEILPGSDSTDYNEKFKVRVTITRDTSTSTAYLELSSLRSEDTAVYYCARGGHYGSLDYWGQGTLVTVSS
VL: DIVMTQSPDSLAVSLGERATINCRASESVDNYGNSFMHWYQQKPGQPPKLLIYLASNLESGVPDRFSGSGSRTDFTLTISSLQAEDVAVYYCQQNYEDPFTFGQGTKVEIKR
notes: VH CDR graft + 71R/78A; also called hu8E11.v7
In turn, B2 yielded a dissociation constant Kd of 22.1 nM, a koff of 0.00258 s⁻¹ and a kon of 117000 M⁻¹ s⁻¹.

B3: h8E11.v8 (antibody, V domains shown)
VH: EVQLVQSGAEVKKPGASVKVSCKASGYTFSAYWIEWVRQAPGQGLEWIGEILPGSDSTDYNEKFKVRVTITADTSTSTAYLELSSLRSEDTAVYYCARGGHYGSLDYWGQGTLVTVSS
VL: DIVMTQSPDSLAVSLGERATINCRASESVDNYGNSFMHWYQQKPGQPPKLLIYLASNLESGVPDRFSGSGSRTDFTLTISSLQAEDVAVYYCQQNYEDPFTFGQGTKVEIKR
notes: VH CDR graft + 71A/78A; also called hu8E11.v8
B3 registered a dissociation constant (Kd) of 8.97 nM, an off-rate constant (koff) of 0.00217 s⁻¹ and a kon of 242000 M⁻¹ s⁻¹.

B4: h8E11.v1 (antibody, V domains shown)
VH: EVQLVQSGAEVKKPGASVKVSCKASGYTFSAYWIEWVRQAPGQGLEWIGEILPGSDSTDYNEKFKVRVTITSDTSTSTVYLELSSLRSEDTAVYYCARGGHYGSLDYWGQGTLVTVSS
VL: DIVMTQSPDSLAVSLGERATINCRASESVDNYGNSFMHWYQQKPGQPPKLLIYLASNLESGVPDRFSGSGSGTDFTLTISSLQAEDVAVYYCQQNYEDPFTFGQGTKVEIKR
notes: VH CDR graft + 71S/78V; also called hu8E11.v1
B4: the Kd came to 5.05 nM, the dissociation rate constant (koff) was 0.000772 s⁻¹ and the kon stood at 153000 M⁻¹ s⁻¹.

B5: h8E11.v4 (antibody, V domains shown)
VH: EVQLVQSGAEVKKPGASVKVSCKASGYTFSAYWIEWVRQAPGQGLEWIGEILPGSDSTDYNEKFKVRATFTSDTSTSTVYLELSSLRSEDTAVYYCARGGHYGSLDYWGQGTLVTVSS
VL: DIVMTQSPDSLAVSLGERATINCRASESVDNYGNSFMHWYQQKPGQPPKLLIYLASNLESGVPDRFSGSGSRTDFTLTISSLQAEDVAVYYCQQNYEDPFTFGQGTKVEIKR
notes: VH CDR graft + 67A/69F/71S/78V; also called hu8E11.v4
Consider B5, for which the Kd was determined as 3.63 nM, the koff was 0.000922 s⁻¹ and the kon was determined as 254000 M⁻¹ s⁻¹.

B6: h8E11.v5 (antibody, V domains shown)
VH: EVQLVQSGAEVKKPGASVKVSCKASGYTFSAYWIEWVRQAPGQGLEWIGEILPGSDSTDYNEKFKVRVTITRDTSTSTAYLELSSLRSEDTAVYYCARGGHYGSLDYWGQGTLVTVSS
VL: DIVMTQSPDSLAVSLGERATINCRASESVDNYGNSFMHWYQQKPGQPPKLLIYLASNLESGVPDRFSGSGSGTDFTLTISSLQAEDVAVYYCQQNYEDPFTFGQGTKVEIKR
notes: VH CDR graft + 71R/78A; also called hu8E11.v5
The molecule B6 showed a dissociation constant Kd of 14.3 nM, a dissociation rate constant (koff) of 0.000933 s⁻¹ and a kon of 65000 M⁻¹ s⁻¹.

B7: h8E11.v6 (antibody, V domains shown)
VH: EVQLVQSGAEVKKPGASVKVSCKASGYTFSAYWIEWVRQAPGQGLEWIGEILPGSDSTDYNEKFKVRVTITADTSTSTAYLELSSLRSEDTAVYYCARGGHYGSLDYWGQGTLVTVSS
VL: DIVMTQSPDSLAVSLGERATINCRASESVDNYGNSFMHWYQQKPGQPPKLLIYLASNLESGVPDRFSGSGSGTDFTLTISSLQAEDVAVYYCQQNYEDPFTFGQGTKVEIKR
notes: VH CDR graft + 71A/78A; also called hu8E11.v6
As to B7, the Kd worked out at 14.1 nM, the off-rate constant (koff) came to 0.00202 s⁻¹ and the on-rate constant (kon) was 143000 M⁻¹ s⁻¹.
